Data on two substances can be found in patent US20070014720A1.

For orientation: Kd means the free concentration of one partner at which half of the binding sites on the other are occupied at equilibrium, for simple one-to-one binding.

In assay [1] the target is human CD20 (human) (UniProt P11836). Description: FACS KD on SB cells expressing CD20 (GMF against mAb concentration, nonlinear fit).
The target is the same in assay [2]. Nature of the assay: cell-based or functional assay.

Chain of human CD20 (human) (P11836 whole entry): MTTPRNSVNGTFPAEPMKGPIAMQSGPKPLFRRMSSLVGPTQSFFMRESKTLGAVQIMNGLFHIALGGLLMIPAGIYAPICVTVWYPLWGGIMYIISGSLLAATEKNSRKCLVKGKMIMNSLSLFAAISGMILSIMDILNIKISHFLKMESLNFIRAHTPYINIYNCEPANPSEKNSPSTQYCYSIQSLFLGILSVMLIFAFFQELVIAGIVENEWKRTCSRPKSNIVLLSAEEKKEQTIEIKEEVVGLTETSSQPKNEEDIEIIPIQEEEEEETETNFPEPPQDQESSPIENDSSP

Consider “B1 antibody (Beckman Coulter, Miami, Fla.)”, for which the Kd in the assay with human CD20 (human) [1] is 0.0341 µM. In other words, the double-digit nanomolar range.

Regarding “Rituxan (Rituximab, Genentech Inc.) (antibody)”, in the assay with human CD20 (human) [2], the % Lysis Daudi 0.001 µg/ml ADCC was 33%, the % Lysis Daudi 1 µg/ml ADCC came out at 95%, the % Lysis Raji 0.001 µg/ml ADCC was 16% and the % Lysis Raji 1 µg/ml ADCC worked out at 62%. In the assay with human CD20 (human) [2], this substance returned a % Lysis Ramos 0.001 µg/ml ADCC of 5%, a % Lysis Ramos 1 µg/ml ADCC of 78%, an EC50 µg/ml Daudi CDC of 1.56 µg/mL and an EC50 µg/ml Raji CDC of 0.31 µg/mL. In the assay with human CD20 (human) [2], this substance gave an EC50 µg/ml Ramos Apoptosis Alamar Blue of 0.222 µg/mL, an EC50 µg/ml Ramos Apoptosis Annexin V of 2.59 µg/mL, an EC50 µg/ml Ramos Apoptosis Cell Titer Glo of 0.576 µg/mL and an EC50 µg/ml Ramos Apoptosis WST-1 of 0.0326 µg/mL. In addition, the EC50 µg/ml Ramos CDC with human CD20 (human) [2] amounted to 0.43 µg/mL. In the assay with human CD20 (human) [1], this substance showed a Kd of 0.0081 µM.
